Columns and labels:
human CD33 [1] = molecular target: T1, human CD33 (human, UniProt P20138 18-259, limits assumed); experiment: BLI (ForteBio), CD33 on tip, Fab 100 nM
T1 construct: Human CD33 immobilized on the BLI sensor tip or the BIAcore C1 chip; also called Siglec-3
Protocol: (§1) The affinities (KD) of the humanized antibodies for human CD33 were measured for each antibody by BioLayer Interferometry in a ForteBio assay according to standard techniques (Estep et al. (2013) MAbs 5(2): 270-8). […] The assay was carried out at room temperature.
(§2) The affinities of AB-H14 and its affinity-matured variants (Table 15) and AB-H63 and its affinity-matured variants (Table 16), for human CD33 were measured by Fortebio assay according to the method described in Example 1 above.

human CD33 [2] = molecular target: T1, human CD33; experiment: BLI (ForteBio), Fab; column looks row-shifted against KD
Protocol: as §1, §2

T1 sequence (P20138 18-259 limits assumed): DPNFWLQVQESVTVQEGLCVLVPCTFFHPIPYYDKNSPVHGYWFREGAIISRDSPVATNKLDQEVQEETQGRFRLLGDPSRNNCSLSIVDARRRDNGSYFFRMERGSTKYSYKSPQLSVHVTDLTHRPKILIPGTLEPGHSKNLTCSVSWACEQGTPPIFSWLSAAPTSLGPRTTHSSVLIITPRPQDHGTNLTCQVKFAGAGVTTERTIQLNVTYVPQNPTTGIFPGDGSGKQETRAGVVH

Row | Binder | Kd (human CD33 [1]) [nM] | koff (human CD33 [1]) [s⁻¹] | koff (human CD33 [2]) [s⁻¹] | kon (human CD33 [2]) [M⁻¹ s⁻¹]
1 | AB-14.1 (antibody, V domains shown) VH: QVQLVQSGAEVKKPGASVKVSCKASGATFTDYNFHWVRQAPGQGLEWIGFIYPSNGITGYAQDFQGRVTMTVDTSTSTVYMELSSLRSEDTAVYYCARSDVDYFDYWGQGTLVTVSS VL: DIQMTQSPSSLSASVGDRVTITCRASQSVSTSTYSYMHWYQQKPGKAPKLLIKYASNLESGVPSRFSGSGSGTDFTLTISSLQPEDFATYYCQHSWEIPLTFGQGTKLEIK | 0.299 | 0.0002 | – | –
2 | AB-63.11 (antibody, V domains shown) VH: QVQLVQSGAEVKKPGASVKVSCKASGYTFTDYNFHWVRQAPGQGLEWIGFIYPANGITGYAQKDQGRVTMTVDTSTSTVYMELSSLRSEDTAVYYCARSDVDYFDYWGQGTLVTVSS VL: DIVLTQSPDSLAVSLGERATINCRASQDVSTSTYSYMHWYQQKPGQPPKLLIKYASNLESGVPDRFSGSGSGTDFTLTISSLQAEDVAVYYCQHSWEIPLTFGQGTKLEIK | – | – | 0.0002 | 913000
3 | AB-63.9 (antibody, V domains shown) VH: QVQLVQSGAEVKKPGASVKVSCKASGYAFTDYNLHWVRQAPGQGLEWIGFIYPSNGITGYAQKFQGRVTMTVDTSTSTVYMELSSLRSEDTAVYYCARSDVDYFDYWGQGTLVTVSS VL: DIVLTQSPDSLAVSLGERATINCRASQDVSTSTYSYMHWYQQKPGQPPKLLIKYASYLESGVPDRFSGSGSGTDFTLTISSLQAEDVAVYYCEHSWEIPLTFGQGTKLEIK | – | – | – | 658000
4 | AB-63.10 (antibody, V domains shown) VH: QVQLVQSGAEVKKPGASVKVSCKASGYTETDYNLHWVRQAPGQGLEWIGFIYPSNGITGYAQKFQGRVTMTVDTSTSTVYMELSSLRSEDTAVYYCARSDVDYFDYWGQGTLVTVSS VL: DIVLTQSPDSLAVSLGERATINCRASQDVSTSTYSYMHWYQQKPGQPPKLLIKYASNLESGVPDRFSGSGSGTDFTLTISSLQAEDVAVYYCQHSWELPLTFGQGTKLEIK | – | – | 0.000546 | 596000
5 | AB-63.5 (antibody, V domains shown) VH: QVQLVQSGAEVKKPGASVKVSCKASGYTFTDYNNHWVRQAPGQGLEWIGFIYPSNGITGYAQKFQGRVTMTVDTSTSTVYMELSSLRSEDTAVYYCARSDVDYFDYWGQGTLVTVSS VL: DIVLTQSPDSLAVSLGERATINCRASQSVSTSTYSYMHWYQQKPGQPPKLLIKYASNLESGVPDRFSGSGSGTDFTLTISSLQAEDVAVYYCQHSWEIPLTFGQGTKLEIK | – | – | 0.00155 | 776000
6 | AB-63.4 (antibody, V domains shown) VH: QVQLVQSGAEVKKPGASVKVSCKASGYTFTDYNYHWVRQAPGQGLEWIGFIYPSNGITGYAQKFQGRVTMTVDTSTSTVYMELSSLRSEDTAVYYCARSTVDYFDYWGQGTLVTVSS VL: DIVLTQSPDSLAVSLGERATINCRASQSVSTSTYSYMHWYQQKPGQPPKLLIKYASNLESGVPDRFSGSGSGTDFTLTISSLQAEDVAVYYCQHSWEIPLTFGQGTKLEIK | – | – | 0.00112 | 602000
7 | AB-63.6 (antibody, V domains shown) VH: QVQLVQSGAEVKKPGASVKVSCKASGYTFTDYNLHWVRQAPGQGLEWIGFIYPSNGITGYAQKFQGRVTMTVDTSTSTVYMELSSLRSEDTAVYYCARSTVDYFDYWGQGTLVTVSS VL: DIVLTQSPDSLAVSLGERATINCRASQDVSTSTYSYMHWYQQKPGQPPKLLIKYASNLESGVPDRFSGSGSGTDFTLTISSLQAEDVAVYYCQHSWEIPLTFGQGTKLEIK | – | – | 0.00176 | 679000
8 | AB-63.7 (antibody, V domains shown) VH: QVQLVQSGAEVKKPGASVKVSCKASGYTFTDYNLHWVRQAPGQGLEWIGFIYPSNGITGYAQKFQGRVTMTVDTSTSTVYMELSSLRSEDTAVYYCARSTVDYFDYWGQGTLVTVSS VL: DIVLTQSPDSLAVSLGERATINCRASQDVSTSTYSYMHWYQQKPGQPPKLLIKYAFNLESGVPDRFSGSGSGTDFTLTISSLQAEDVAVYYCQHSWEIPLEFGQGTKLEIK | – | – | 0.000581 | 809000
9 | AB-63.8 (antibody, V domains shown) VH: QVQLVQSGAEVKKPGSSVKVSCKASGVTFTDYNYHWVRQAPGQGLEWIGFIYPSNGITGYAQKFQDRVTMTVDTSTSTVYMELSSLRSEDTAVYYCARSTVDYFDYWGQGTLVTVSS VL: DIVLTQSPDSLAVSLGERATINCRASQDVSTSTYSYMHWYQQKPGQPPKLLIKYASNLESGVPDRFSGSGSGTDFTLTISSLQAEDVAVYYCQHSWEIPLTFGQGTKLEIK | – | – | 0.000524 | 847000

More lines, now with the values ahead:

Row | Kd (human CD33 [1]) [nM] | koff (human CD33 [1]) [s⁻¹] | koff (human CD33 [2]) [s⁻¹] | kon (human CD33 [2]) [M⁻¹ s⁻¹] | Binder
10 | – | – | 0.000204 | 903000 | AB-63.18 (antibody, V domains shown) VH: QVQLVQSGAEVKKPGSSVKVSCKASGYTHTDYNLHWVRQAPGQGLEWIGFIYPSNGITGYAQKFQGRVTMTVDTSTSTVYMELSSLRSEDTAVYYCARSDVDYFDYWGQGTLVTVSS VL: DIVLTQSPDSLAVSLGERATINCRASQSVSTSTYSYMHWYQQKPGQPPKLLIKYESNLESGVPDRFSGSGSGTDFTLTISSLQAEDVAVYYCQHSWEIPLTFGQGTKLEIK
11 | – | – | 0.000322 | 839000 | AB-63.14 (antibody, V domains shown) VH: QVQLVQSGAEVKKPGSSVKVSCKASGYTFTDYNLHWVRQAPGQGLEWIGFIYPSNGITGYAQKFQGRVTMTVDTSTSTVYMELSSLRSEDTAVYYCARSDVDYFDYWGQGTLVTVSS VL: DIVLTQSPDSLAVSLGERATIDCKASQDVSTSTYSYMHWYQQKPGQPPKLLIKYASNLESGVPDRFSGSGSGTDFTLTISSLQAEDVAVYYCQHSWEIPLTFGQGTKLEIK
12 | – | – | 0.0002 | 723000 | AB-63.15 (antibody, V domains shown) VH: QVQLVQSGAEVKKPGASVKVSCKASGYTFTDYNYHWVRQAPGQGLEWIGFIYPSNGITGYAQKFQGRVTMTVDTSTSTVYMELSSLRSEDTAVYYCARSDVDYFDLWGQGTLVTVSS VL: DIVLTQSPDSLAVSLGERATINCRASQDVSTSTYSYMHWYQQKPGQPPKLLIKYASNVESGVPDRFSGSGSGTDFTLTISSLQAEDVAVYYCQHSWEIPLTFGQGTKLEIE
13 | – | – | – | 738000 | AB-63.12 (antibody, V domains shown) VH: QVQLVQSGAEVKKPGASVKVSCKASGYTFTDYNFHWVRQAPGQGLEWIGFIYPSNGITGYAQKFTGRVTMTVDTSTSTVYMELSSLRSEDTAVYYCARSTVDYFDDWGQGTLVTVSS VL: DIVLTQSPDSLAVSLGERATINCRASQDVSTSTYSYMHWYQQKPGQPPKLLIKYASNVESGVPDRFSGSGSGTDFTLTISSLQAEDVAVYYCQHSWAIPLTFGQGTKLEIK
14 | – | – | 0.000336 | 721000 | AB-63.13 (antibody, V domains shown) VH: QVQLVQSGAEVKKPGASVKVSCKASGYTFTDYNLHWVRQAPGQGLEWIGFIYPSNGIRGYAQKFQGRVTMTVDTSTSTVYMELSSLRSEDTAVYYCARSDVDYFDYWGQGTLVTVSS VL: DIVLTQSPDSLAVSLGERATINCRASQSVSTSTYSYMHWYQQKPGQPPKLLIKYASNLESGVPDRFSGSGSGTDFTLTISSLQAEDVAVYYCQHSEEIPLTFGQGTKLEIK
